Experimental data reported in PMC2686265, “ATP and MO25α Regulate the Conformational State of the STRADα Pseudokinase and Activation of the LKB1 Tumour Suppressor” (PLoS Biology, 2009).

Tests used:
STRADα = target: T1, STRADα (Homo sapiens, UniProt Q7RTN6); test: TNP-ATP saturation binding (fluorescence); details: STRADα alone
T1 construct: wild-type and mutant forms of STRADα (residues 54–431) and MO25α (residues 1–341) were expressed individually as GST fusion proteins in E. coli; GST (cleaved yes); made in house; host or cells: E. coli
T1 sequence (Q7RTN6 54-431): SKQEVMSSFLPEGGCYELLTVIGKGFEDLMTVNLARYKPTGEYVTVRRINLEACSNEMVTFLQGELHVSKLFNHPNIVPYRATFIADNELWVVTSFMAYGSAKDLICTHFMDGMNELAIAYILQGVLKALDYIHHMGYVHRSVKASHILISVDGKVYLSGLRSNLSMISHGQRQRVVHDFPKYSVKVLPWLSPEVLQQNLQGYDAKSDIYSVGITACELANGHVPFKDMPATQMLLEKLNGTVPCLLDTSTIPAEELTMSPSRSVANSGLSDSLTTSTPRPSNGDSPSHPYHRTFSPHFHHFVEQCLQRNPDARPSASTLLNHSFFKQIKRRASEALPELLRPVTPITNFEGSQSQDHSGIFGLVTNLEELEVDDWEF
Method: (§1) Fluorescent measurements of TNP-ATP (Molecular Probes), were obtained at 25°C in assay buffer (with the addition of 0.5–1.0 mM MgCl2 where indicated) using 1-cm pathlength cuvettes in a VARIAN Cary Eclipse Fluorescence spectrophotometer (Varian). Fluorescence was recorded using a 410-nm/540-nm excitation/emission wavelengths from 500 to 600 nm. In all cases, signal from the TNP-ATP buffer control was subtracted as background. For all binding studies, STRADα and STRADα mutants were assayed at 2 µM. In cases where STRADα/MO25α complexes were assayed, wild-type or mutant MO25α (2 µM) were preincubated for at least 2 h at 4°C prior to a fluorescence binding experiment. For saturation binding experiments, concentrated stocks of TNP-ATP were added stepwise, covering a range of concentrations from 0.05 to 30 µM. For displacement experiments, the concentration of TNP-ATP was fixed at 5 µM, and ATP or ADP was titrated in, covering a range of concentrations from 0.05 to 500 µM.
(§2) All data were analysed using GraphPad-PRISM software (http://www.graphpad.com). […] In the displacement studies, equilibrium constant values for ATP and ADP were calculated by first determining the logEC50 value, using a standard dose-response equation: F x/F max = minimum+(maximum−minimum)/(1+10^([N]−logEC 50 ^)), where [N] equals the concentration of added nucleotide, and F x/F max represents the fractional occupancy. Equilibrium constants for the competing ATP and ADP (K d ^N), were fitted using the equation: logEC50 = log(10^logK d ^N × (1+[TNP−ATP]/K d ^TNP−ATP)).

STRADα/MO25α complex = target: T2, STRADα/MO25α complex (Homo sapiens, UniProt Q7RTN6); test: TNP-ATP saturation binding (fluorescence); details: No Mg2+
T2 construct: wild-type and mutant forms of STRADα (residues 54–431) and MO25α (residues 1–341) were expressed individually as GST fusion proteins in E. coli; GST (cleaved yes); made in house; host or cells: E. coli
T2 sequence (Q7RTN6 54-431): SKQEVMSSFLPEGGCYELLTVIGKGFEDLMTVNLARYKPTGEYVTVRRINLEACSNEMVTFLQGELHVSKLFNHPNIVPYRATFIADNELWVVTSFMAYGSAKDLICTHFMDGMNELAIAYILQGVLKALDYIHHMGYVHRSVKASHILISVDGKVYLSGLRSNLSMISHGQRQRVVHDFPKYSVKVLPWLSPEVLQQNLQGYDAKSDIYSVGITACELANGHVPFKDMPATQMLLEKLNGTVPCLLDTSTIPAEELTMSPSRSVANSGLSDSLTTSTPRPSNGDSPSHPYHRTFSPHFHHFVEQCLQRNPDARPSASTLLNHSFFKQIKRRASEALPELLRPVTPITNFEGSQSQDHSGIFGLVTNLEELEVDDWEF
T2 sequence (Q9Y376 1-341 partner): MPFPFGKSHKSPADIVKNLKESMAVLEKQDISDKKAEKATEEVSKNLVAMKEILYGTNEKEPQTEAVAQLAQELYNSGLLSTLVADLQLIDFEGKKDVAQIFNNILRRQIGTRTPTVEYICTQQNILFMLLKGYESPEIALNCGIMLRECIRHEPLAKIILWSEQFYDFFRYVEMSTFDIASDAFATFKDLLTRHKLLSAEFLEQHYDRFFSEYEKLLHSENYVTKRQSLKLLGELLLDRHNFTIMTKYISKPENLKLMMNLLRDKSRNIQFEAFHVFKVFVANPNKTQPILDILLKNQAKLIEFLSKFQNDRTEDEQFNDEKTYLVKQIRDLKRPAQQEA
Method: as §1, §2

[1] = target: T3, His-STRADα (residues 59–431) (human, UniProt Q7RTN6 59-431, lysines chemically methylated in the 2.35 Å crystal form only); test: crystal structure; co-expressed His-STRADα(59–431)/MO25α(1–341) complex at 7.5 mg/ml with 10 mM ATP and 1 mM MgCl2, sitting drop; unmethylated crystals 4.8 Å, lysine-methylated crystals 2.35 Å, space group P212121; details: both partners purified
T3 construct: STRADα (STe-20 Related Adaptor alpha), human, residues 59–431; Crystallised both unmethylated (4.8 Å) and lysine-methylated (2.35 Å, PDB 3GNI); unmethylated in SPR; also called N-terminally 6-His-tagged STRADα; His-tagged STRADα; source: E. coli BL21(DE3)pLysS, coexpressed with untagged MO25α, purified (Ni2+ IMAC, Superdex 75); for SPR separated from MO25α on Ni2+-agarose (500 mM NaCl washes, …)
T3 sequence (looked up): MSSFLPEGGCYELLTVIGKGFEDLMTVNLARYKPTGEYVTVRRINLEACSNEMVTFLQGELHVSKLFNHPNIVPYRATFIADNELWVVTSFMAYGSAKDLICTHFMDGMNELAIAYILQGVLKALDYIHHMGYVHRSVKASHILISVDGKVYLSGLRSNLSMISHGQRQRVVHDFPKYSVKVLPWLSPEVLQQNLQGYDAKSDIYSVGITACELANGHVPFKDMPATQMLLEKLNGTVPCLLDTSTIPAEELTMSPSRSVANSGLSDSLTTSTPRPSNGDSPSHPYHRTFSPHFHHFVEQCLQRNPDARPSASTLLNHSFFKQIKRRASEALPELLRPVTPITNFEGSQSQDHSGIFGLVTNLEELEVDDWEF

[2] = target: T4, untagged STRADα (residues 59–431) (human, UniProt Q7RTN6 59-431); test: SPR; as a2 but with 100 µM ATP and 1 mM MgCl2 (MgATP); details: both partners purified
T4 construct: STRADα, human, residues 59–431; also called STRADα lacking the His tag
T4 sequence (looked up): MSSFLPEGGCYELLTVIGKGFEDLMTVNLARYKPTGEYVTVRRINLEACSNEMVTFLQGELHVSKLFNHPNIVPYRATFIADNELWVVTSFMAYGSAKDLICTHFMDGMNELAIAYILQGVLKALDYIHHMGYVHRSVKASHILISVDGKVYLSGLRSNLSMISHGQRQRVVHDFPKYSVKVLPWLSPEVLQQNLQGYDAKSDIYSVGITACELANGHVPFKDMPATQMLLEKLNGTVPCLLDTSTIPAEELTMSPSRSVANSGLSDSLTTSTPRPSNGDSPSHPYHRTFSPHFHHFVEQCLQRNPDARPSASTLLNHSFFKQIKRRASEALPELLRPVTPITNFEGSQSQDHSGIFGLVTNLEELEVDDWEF

[3] = target: T5, MO25α (M260A) (residues 1–341) (human, UniProt Q9Y376 1-341, M260A); test: SPR
T5 sequence: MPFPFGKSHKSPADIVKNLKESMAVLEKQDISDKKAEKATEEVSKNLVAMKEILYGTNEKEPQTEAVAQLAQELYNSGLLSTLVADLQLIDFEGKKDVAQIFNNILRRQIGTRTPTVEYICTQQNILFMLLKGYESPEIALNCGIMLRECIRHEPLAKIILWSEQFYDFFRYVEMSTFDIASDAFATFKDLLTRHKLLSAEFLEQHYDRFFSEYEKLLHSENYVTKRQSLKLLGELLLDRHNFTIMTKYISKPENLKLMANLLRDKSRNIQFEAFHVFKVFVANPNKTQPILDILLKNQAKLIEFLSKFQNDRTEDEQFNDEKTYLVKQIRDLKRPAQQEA

[4] = target: T5, MO25α (M260A) (residues 1–341); test: SPR; ATP, Kd1
[5] = target: T6, MO25α (R227A) (residues 1–341) (human, UniProt Q9Y376 1-341, R227A); test: SPR; ATP, Kd1
T6 sequence: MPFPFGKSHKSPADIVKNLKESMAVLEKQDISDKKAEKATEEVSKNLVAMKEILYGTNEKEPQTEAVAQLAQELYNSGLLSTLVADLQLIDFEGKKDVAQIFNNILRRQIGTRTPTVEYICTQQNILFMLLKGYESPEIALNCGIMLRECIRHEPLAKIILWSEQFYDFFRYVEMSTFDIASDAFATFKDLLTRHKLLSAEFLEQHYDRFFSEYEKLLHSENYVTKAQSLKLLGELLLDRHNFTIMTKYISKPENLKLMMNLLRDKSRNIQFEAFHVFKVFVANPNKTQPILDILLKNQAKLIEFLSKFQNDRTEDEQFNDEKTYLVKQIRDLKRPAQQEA

[6] = target: T5, MO25α (M260A) (residues 1–341); test: SPR; ATP, Kd2 (second site)
[7] = target: T5, MO25α (M260A) (residues 1–341); test: SPR; ATP+Mg2+, Kd1
[8] = target: T7, MO25α (WT) (residues 1–341) (human, UniProt Q9Y376 1-341); test: SPR; ATP+Mg2+, Kd1
T7 chain: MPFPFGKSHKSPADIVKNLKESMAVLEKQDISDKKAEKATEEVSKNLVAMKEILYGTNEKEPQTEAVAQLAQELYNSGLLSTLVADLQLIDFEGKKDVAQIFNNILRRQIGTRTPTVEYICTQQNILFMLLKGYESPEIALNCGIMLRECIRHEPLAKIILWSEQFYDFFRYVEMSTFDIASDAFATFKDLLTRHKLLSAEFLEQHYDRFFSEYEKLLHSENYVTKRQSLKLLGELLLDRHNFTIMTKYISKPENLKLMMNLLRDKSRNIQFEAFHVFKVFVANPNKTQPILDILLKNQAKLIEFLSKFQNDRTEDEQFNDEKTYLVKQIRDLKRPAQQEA

[9] = target: T6, MO25α (R227A) (residues 1–341); test: SPR; ATP+Mg2+, Kd1
[10] = target: T5, MO25α (M260A) (residues 1–341); test: SPR; ATP+Mg2+, Kd2 (second site)
[11] = target: T7, MO25α (WT) (residues 1–341); test: SPR; ATP+Mg2+, Kd2 (second site)

Nc1ncnc2c1ncn2[C@@H]1O[C@H](COP(=O)(O)OP(=O)(O)OP(=O)(O)O)[C@H]2OC3(O[C@H]21)C([N+](=O)[O-])=CC(=[N+]([O-])[O-])C=C3[N+](=O)[O-] (some centres unmarked) [TNP-ATP, 2′,3′-O-2,4,6-trinitrophenyl-ATP]
Kd (STRADα; 0.5 mM Mg2+): 1.3 ± 0.8 µM
Kd (STRADα; No Mg2+): 1.1 µM
Kd (STRADα/MO25α complex): 0.09 ± 0.03 µM

B1: full-length MO25α (residues 1–341), untagged (natural protein, human, UniProt Q9Y376 1-341, looked up)
chain: MPFPFGKSHKSPADIVKNLKESMAVLEKQDISDKKAEKATEEVSKNLVAMKEILYGTNEKEPQTEAVAQLAQELYNSGLLSTLVADLQLIDFEGKKDVAQIFNNILRRQIGTRTPTVEYICTQQNILFMLLKGYESPEIALNCGIMLRECIRHEPLAKIILWSEQFYDFFRYVEMSTFDIASDAFATFKDLLTRHKLLSAEFLEQHYDRFFSEYEKLLHSENYVTKRQSLKLLGELLLDRHNFTIMTKYISKPENLKLMMNLLRDKSRNIQFEAFHVFKVFVANPNKTQPILDILLKNQAKLIEFLSKFQNDRTEDEQFNDEKTYLVKQIRDLKRPAQQEA
modifications: lysines chemically methylated in the 2.35 Å crystal form only
notes: MO25α, human, full length, residues 1–341; source: E. coli BL21(DE3)pLysS, coexpressed with His-STRADα, co-purified (Ni2+ IMAC, Superdex 75)
binding result [1]: binds

B2: MO25α (R227A) (residues 1–341) (natural protein, human, UniProt Q9Y376 1-341, looked up)
chain: MPFPFGKSHKSPADIVKNLKESMAVLEKQDISDKKAEKATEEVSKNLVAMKEILYGTNEKEPQTEAVAQLAQELYNSGLLSTLVADLQLIDFEGKKDVAQIFNNILRRQIGTRTPTVEYICTQQNILFMLLKGYESPEIALNCGIMLRECIRHEPLAKIILWSEQFYDFFRYVEMSTFDIASDAFATFKDLLTRHKLLSAEFLEQHYDRFFSEYEKLLHSENYVTKAQSLKLLGELLLDRHNFTIMTKYISKPENLKLMMNLLRDKSRNIQFEAFHVFKVFVANPNKTQPILDILLKNQAKLIEFLSKFQNDRTEDEQFNDEKTYLVKQIRDLKRPAQQEA
notes: MO25α, human, residues 1–341 (full length), R227A; source: E. coli, expressed individually as GST fusion, purified on glutathione-Sepharose, eluted with PreScission protease
binding result [2]: binds

B3: untagged STRADα (residues 59–431) (domain or fragment)
chain: MSSFLPEGGCYELLTVIGKGFEDLMTVNLARYKPTGEYVTVRRINLEACSNEMVTFLQGELHVSKLFNHPNIVPYRATFIADNELWVVTSFMAYGSAKDLICTHFMDGMNELAIAYILQGVLKALDYIHHMGYVHRSVKASHILISVDGKVYLSGLRSNLSMISHGQRQRVVHDFPKYSVKVLPWLSPEVLQQNLQGYDAKSDIYSVGITACELANGHVPFKDMPATQMLLEKLNGTVPCLLDTSTIPAEELTMSPSRSVANSGLSDSLTTSTPRPSNGDSPSHPYHRTFSPHFHHFVEQCLQRNPDARPSASTLLNHSFFKQIKRRASEALPELLRPVTPITNFEGSQSQDHSGIFGLVTNLEELEVDDWEF
Kd [3]: 8.1 µM
Kd [4]: 1.5 µM
Kd [5]: 0.6 µM
Kd [6]: 0.03 µM
Kd [7]: 2.3 µM
Kd [8]: 5.1 µM
Kd [9]: 0.8 µM
Kd [10]: 0.082 µM
Kd [11]: 0.051 µM
